# Assay results taken from patent US20180105596A1 (ELSALYS BIOTECH, published 2018).
# Residue numbers refer to the chain shown, from its start.
# T1: extracellular domain of human Axl, Fc fusion (R&D Systems 154-AL-100) (human, UniProt P30530 26-451)
# T1 construct: Bought protein; also called hAxl; hAXL; not shown: Fc of the bought ECD-Fc fusion
# T1 sequence: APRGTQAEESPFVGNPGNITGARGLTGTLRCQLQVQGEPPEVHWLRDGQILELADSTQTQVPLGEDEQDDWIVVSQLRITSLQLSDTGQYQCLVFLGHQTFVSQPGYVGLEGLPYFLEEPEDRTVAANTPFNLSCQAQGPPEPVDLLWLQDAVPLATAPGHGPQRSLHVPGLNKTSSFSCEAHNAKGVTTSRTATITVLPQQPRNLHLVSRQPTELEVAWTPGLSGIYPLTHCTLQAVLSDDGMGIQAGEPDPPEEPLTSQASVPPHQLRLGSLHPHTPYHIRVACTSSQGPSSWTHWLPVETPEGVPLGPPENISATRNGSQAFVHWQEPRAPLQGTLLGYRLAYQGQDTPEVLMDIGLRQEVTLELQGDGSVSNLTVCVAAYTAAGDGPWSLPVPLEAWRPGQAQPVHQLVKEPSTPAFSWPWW
# T2: extracellular domain of human Mer, Fc fusion (R&D Systems 891-MR-100) (human, UniProt Q12866 21-505)
# T2 construct: Bought protein; also called hMer; hMER; not shown: Fc of the bought ECD-Fc fusion
# T2 sequence: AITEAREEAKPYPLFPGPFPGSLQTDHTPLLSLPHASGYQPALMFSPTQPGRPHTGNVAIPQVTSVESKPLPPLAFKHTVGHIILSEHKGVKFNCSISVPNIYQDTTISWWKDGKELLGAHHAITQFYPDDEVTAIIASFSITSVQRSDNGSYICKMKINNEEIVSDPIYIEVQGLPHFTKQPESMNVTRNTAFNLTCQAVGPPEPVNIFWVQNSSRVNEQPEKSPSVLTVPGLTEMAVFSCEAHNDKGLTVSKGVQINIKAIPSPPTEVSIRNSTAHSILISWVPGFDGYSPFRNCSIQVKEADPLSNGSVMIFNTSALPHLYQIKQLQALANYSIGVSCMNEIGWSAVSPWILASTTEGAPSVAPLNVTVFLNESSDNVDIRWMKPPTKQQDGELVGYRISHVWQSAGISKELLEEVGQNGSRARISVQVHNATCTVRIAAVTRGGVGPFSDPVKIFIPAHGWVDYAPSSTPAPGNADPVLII
# T3: hTyro 3-ECD
# T3 construct: not the His-Strep tagged ECD m13; also called Recombinant Human Dtk-Fc Chimera (R&D Systems 859-DK-100); not shown: Human Fc, and any linker, of the commercial chimera (R&D Systems 859-DK-100)
# T3 chain: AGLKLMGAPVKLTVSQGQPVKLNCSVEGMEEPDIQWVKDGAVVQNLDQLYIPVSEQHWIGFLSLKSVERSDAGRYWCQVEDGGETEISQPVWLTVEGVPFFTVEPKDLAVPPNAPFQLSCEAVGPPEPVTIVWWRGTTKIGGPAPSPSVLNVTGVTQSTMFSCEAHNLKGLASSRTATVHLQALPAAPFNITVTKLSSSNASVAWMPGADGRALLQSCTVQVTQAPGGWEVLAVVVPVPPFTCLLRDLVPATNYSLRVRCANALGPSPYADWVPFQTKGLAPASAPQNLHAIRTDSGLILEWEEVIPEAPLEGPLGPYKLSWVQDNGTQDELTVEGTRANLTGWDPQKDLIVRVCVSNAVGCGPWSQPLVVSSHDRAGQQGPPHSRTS
# T4: Tyro3 ECD FNIII 1-FNIII-2
# T4 construct: also called FNIII 1 + FNIII 2 fragment of hTyro3 ECD, His-Strep tagged
# T4 fragment: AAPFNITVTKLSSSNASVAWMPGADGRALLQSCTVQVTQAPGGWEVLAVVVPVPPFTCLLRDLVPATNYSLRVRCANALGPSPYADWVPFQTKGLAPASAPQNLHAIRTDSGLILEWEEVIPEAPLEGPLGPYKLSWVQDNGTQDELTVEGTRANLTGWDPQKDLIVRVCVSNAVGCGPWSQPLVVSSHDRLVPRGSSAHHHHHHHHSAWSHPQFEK
# T5: Tyro3 ECD Ig2-FNIII 1
# T5 construct: also called Ig2 + FNIII 1 fragment of hTyro3 ECD, His-Strep tagged
# T5 fragment: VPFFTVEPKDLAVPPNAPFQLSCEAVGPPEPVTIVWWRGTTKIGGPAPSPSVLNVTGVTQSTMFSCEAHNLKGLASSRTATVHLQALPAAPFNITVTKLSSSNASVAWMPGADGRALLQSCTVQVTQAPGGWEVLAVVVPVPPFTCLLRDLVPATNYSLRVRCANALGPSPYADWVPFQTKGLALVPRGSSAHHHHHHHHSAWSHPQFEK
# T6: Ig-1 and Ig-2 domains fragment of human Tyro3 ECD, His-Strep tagged (human)
# T6 construct: also called Ig1-Ig2 fragment
# T6 chain: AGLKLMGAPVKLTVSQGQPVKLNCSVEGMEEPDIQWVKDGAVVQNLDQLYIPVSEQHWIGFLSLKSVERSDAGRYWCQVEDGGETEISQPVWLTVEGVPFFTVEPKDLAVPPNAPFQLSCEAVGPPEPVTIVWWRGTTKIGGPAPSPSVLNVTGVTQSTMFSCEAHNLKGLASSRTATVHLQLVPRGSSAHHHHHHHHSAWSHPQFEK
# T7: Ig-1 domain fragment of human Tyro3 ECD, His-Strep tagged (human)
# T7 chain: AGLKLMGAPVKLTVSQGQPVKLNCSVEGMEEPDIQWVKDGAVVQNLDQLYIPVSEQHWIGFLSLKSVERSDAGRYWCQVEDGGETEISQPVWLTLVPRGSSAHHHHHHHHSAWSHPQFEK
# B1: anti-Tyro3 scFv 2413 (scFv, V domains shown)
# VH: EVQLVQSGADVKKPGASLTISCQASGYTFTDYWISWVRQKPGKGLEWMGRIHTYQSSTRYGPSFQGHVTISADRSTATAYLQWRSLEASDTAMYYCVRHHSTTTANPYSSWGPGTLVTVSS
# VL: SYELTQPPSVSVSPGQTARITCSGDALPKKYAYWYQQKSGQAPVLVIYEDDKRLSGIPERFSGSSSGTMATLTISGAQVEDEADYYCYSTEINGNYAVFGGGTKLTVL
# notes: Tested as a single-chain Fv made in E. coli
# B2: anti-Tyro3 scFv 2411 (scFv, V domains shown)
# VH: EVQLVQSGADVKKPGASLTISCQASGYTFTDYWISWVRQKPGKGLEWMGSITRSSSRTHYGPSFQGHVTISADRSTATAYLQWRSLEASDTAMYYCVRGYTHLRTWGPGTLVTVSS
# VL: B1 VL with D51S, L54S, T90A, E91N, I92Q, N93R, A97M
# notes: as for B1
# B3: anti-Tyro3 scFv 2718 (scFv, V domains shown)
# VH: EVQLVQSGADVKKPGASLTISCQASGYTFTDYWISWVRQKPGKGLEWMGHINPMRSTTTYGPSFQGHVTISADRSTATAYLQWHSLEASDTAMYYCVRNDNHDDYTYTDDWGPGTLVTVSS
# VL: B1 VL with D51T, L54H, T90A, I92H, N93R
# notes: as for B1
# Target: T1, extracellular domain of human Axl, Fc …
# Test: ELISA, ECD coated 1 µg/well, scFv 1 µg/mL, anti-tag-HRP
# Method: (§1) Extracellular domains of hTyro 3 (859-DK-100), hAxl (154-AL-100) or hMer (891-MR-100) from R&D Systems were coated onto 96-wells microtiter plates (1 μg/well) in PBS and incubated overnight at 4° C. Plates were washed three times with PBS and blocked in PBS/3% BSA for 1 hour at RT. Plates were washed as above and scFvs were added at 1 μg/mL (diluted in PBS) and incubated for 1 hour at RT. Plates were washed three times with PBST (PBS/0.01% Tween-20) and secondary antibody anti-FLAG-HRP was added (Abcam, ab49763, 1/5000 dilution in blocking buffer) for 1 hour at RT. Plates were washed as above with PBST and signal was developed with Ultra-TMB reagent (Thermo Scientific, 34028).
row,Binder,binding result
1,B1,no binding (tested: 1 µg/mL)
2,B2,no binding (tested: 1 µg/mL)
3,B3,no binding (tested: 1 µg/mL)

# Target: T2, extracellular domain of human Mer, Fc …
# Test: as above
# Method: as §1
row,Binder,binding result
1,B1,no binding (tested: 1 µg/mL)
2,B2,no binding (tested: 1 µg/mL)
3,B3,no binding (tested: 1 µg/mL)

# Target: T3, hTyro 3-ECD
# Test: as above
# Method: as §1
row,Binder,binding result
1,B1,binds
2,B2,binds
3,B3,binds

# Target: T4, Tyro3 ECD FNIII 1-FNIII-2
# Test: sandwich ELISA, Strep-tagged fragment captured on StrepMAB plate, scFv 10 µg/mL (Table 17), anti-FLAG-HRP
row,Binder,binding result
1,B1,no binding (tested: 10 µg/mL)
2,B2,no binding (tested: 10 µg/mL)
3,B3,binds

# Target: T5, Tyro3 ECD Ig2-FNIII 1
# Test: as above
row,Binder,binding result
1,B1,binds
2,B2,binds
3,B3,binds

# Target: T6, Ig-1 and Ig-2 domains fragment of human …
# Test: as above
row,Binder,binding result
1,B1,binds
2,B2,binds
3,B3,no binding (tested: 10 µg/mL)

# Target: T7, Ig-1 domain fragment of human Tyro3 …
# Test: as above
row,Binder,binding result
1,B1,binds
2,B2,binds
3,B3,no binding (tested: 10 µg/mL)
